Reference: patent US20240116985A1, “STAPLED PEPTIDES AND METHODS THEREOF” (priority 2020, published 2024)
Starred links: 1 amine or outer side, 2 acyl side, 3 side chain; linkers in the order of their positions; H or OH if unused. Positions of bridges follow the written chain, without caps; N, C: chain ends. Non-standard residues stand in square brackets, D forms with d. Primed or numbered codes have the meaning given here. PyrS2″ = (S)-3-amino-1-((pent-4-en-1-yloxy)carbonyl)pyrrolidine-3-carboxylic acid (stapling residue), C=CCCCOC(=O)N1CC[C@@](N[*:1])(C(=O)[*:2])C1; B5(16) = 2-amino-2-(pent-4-en-1-yl)hept-6-enoic acid = 2,2-bis(4-pentenyl)glycine (stitching residue), C=CCCCC(CCCC=C)(N[*:1])C(=O)[*:2]; B5(4) = 2,2-bis(4-pentenyl)glycine = 2-amino-2-(pent-4-en-1-yl)hept-6-enoic acid (stitching residue), C=CCCCC(CCCC=C)(N[*:1])C(=O)[*:2]; B5(5) = 2,2-bis(4-pentenyl)glycine, 2-amino-2-(pent-4-en-1-yl)hept-6-enoic acid (stitching residue), C=CCCCC(CCCC=C)(N[*:1])C(=O)[*:2]; TfeGA = (S)-2-amino-3-((carboxymethyl)(2,2,2-trifluoroethyl)amino)propanoic acid, O=C([C@H](CN(CC(=O)[*:3])CC(F)(F)F)N[*:1])[*:2]; PyrS2 = (S)-3-amino-1-((pent-4-en-1-yloxy)carbonyl)pyrrolidine-3-carboxylic acid, C=CCCCOC(=O)N1CC[C@@](N[*:1])(C(=O)[*:2])C1; PyrS1 = (S)-3-amino-1-((but-3-en-1-yloxy)carbonyl)pyrrolidine-3-carboxylic acid, C=CCCOC(=O)N1CC[C@@](N[*:1])(C(=O)[*:2])C1; B5(3) = 2,2-bis(4-pentenyl)glycine (stitching residue), C=CCCCC(CCCC=C)(N[*:1])C(=O)[*:2]; AspSH = (S)-2-amino-4-mercapto-4-oxobutanoic acid, O=C(C[C@H](N[*:1])C(=O)[*:2])S[*:3]; B5 = 2-amino-2-(pent-4-en-1-yl)hept-6-enoic acid, C=CCCCC(CCCC=C)(N[*:1])C(=O)[*:2]; B6 = 2-amino-2-(hex-5-en-1-yl)oct-7-enoic acid, C=CCCCCC(CCCCC=C)(N[*:1])C(=O)[*:2]; Phe(3-CONH2) = NC(=O)c1cccc(C[C@H](N)C(=O)O)c1; Phe(3-COOH) = N[C@@H](Cc1cccc(C(=O)O)c1)C(=O)O; Phe(4-CONH2) = NC(=O)c1ccc(C[C@H](N)C(=O)O)cc1; 2F3MeF = Cc1cccc(C[C@H](N[*:1])C(=O)[*:2])c1F; Phe(2-CF3) = N[C@@H](Cc1ccccc1C(F)(F)F)C(=O)O; Phe(2-CONH2) = NC(=O)c1ccccc1C[C@H](N)C(=O)O; Phe(3-Cl) = N[C@@H](Cc1cccc(Cl)c1)C(=O)O; Phe(4-Cl) = N[C@@H](Cc1ccc(Cl)cc1)C(=O)O; Phe(2-Cl) = N[C@@H](Cc1ccccc1Cl)C(=O)O; Bta = N[C@@H](Cc1csc2ccccc12)C(=O)O; Lys(iPr) = CC(C)NCCCC[C@H](N)C(=O)O; αAllylPro = C=CC[C@@]1(C(=O)O)CCCN1; tBuAla = CC(C)(C)C[C@H](N)C(=O)O; 3Thi = N[C@@H](Cc1ccsc1)C(=O)O; Cha = N[C@@H](CC1CCCCC1)C(=O)O; S8 = C=CCCCCCC[C@](C)(N)C(=O)O; αMeP = C[C@@]1(C(=O)O)CCCN1; TfeGA″ = not defined here; hSer = N[C@@H](CCO)C(=O)O; Nle = CCCC[C@H](N)C(=O)O; Aib = CC(C)(N)C(=O)O

B1: I-1523: Ac-PL3-Asp-nLeu-B5-Asp-Glu-Ala-Ala-Phe-Leu-S8-Phe-BztA-Gln-NH2 (peptide)
peptide: Ac-[αAllylPro]D[Nle][B5(5)]DEAAFL[S8]F[Bta]Q-NH2
modifications: staple 1-4, 4-11
B2: I-1524: Ac-PL3-Asp-nLeu-B5-Asp-Glu-Ala-Ala-Phe-Hse-S8-Phe-BztA-Gln-NH2 (peptide)
peptide: Ac-[αAllylPro]D[Nle][B5(5)]DEAAF[hSer][S8]F[Bta]Q-NH2
modifications: staple 1-4, 4-11; also: staple isomer, earlier eluting HPLC peak
B3: I-1525: Ac-PL3-Asp-nLeu-B5-Asp-Glu-Ala-Ala-Phe-Hse-S8-Phe-BztA-Gln-NH2 (peptide)
peptide: Ac-[αAllylPro]D[Nle][B5(5)]DEAAF[hSer][S8]F[Bta]Q-NH2
modifications: staple 1-4, 4-11
B4: I-383 (peptide)
peptide: XDAXDEAAFVXXXQ
modifications: not fully specified; N-terminal Ac; PL3 at 1, B5 at 4, S8 at 11 (staples 1-4 and 4-11 by olefin metathesis); 2pyrA at 12; BztA at 13; C-terminal NH2
B5: I-1705 (peptide)
peptide: Ac-[αAllylPro]D[tBuAla][B5(16)]D[TfeGA]AAFL[PyrS2″][3Thi][Bta]N-NH2
modifications: staple 1-4, 4-11
B6: I-1706 (peptide)
peptide: Ac-[αAllylPro]D[tBuAla][B5(4)]D[TfeGA″]AAFL[PyrS2″][3Thi][Bta]T-NH2
modifications: staple 1-4, 4-11; reading uncertain
B7: I-1707 (peptide)
peptide: Ac-[αAllylPro]D[tBuAla][B5(4)]D[TfeGA]AAFL[PyrS2″][3Thi][Bta][Phe(2-CONH2)]-NH2
modifications: staple 1-4, 4-11
B8: I-1708 (peptide)
peptide: Ac-[αAllylPro]D[tBuAla][B5(4)]D[TfeGA]AAFL[PyrS2″][3Thi][Bta][Phe(3-CONH2)]-NH2
modifications: staple 1-4, 4-11
B9: I-1715 (peptide)
peptide: Ac-[αAllylPro]D[tBuAla][B5(4)]D[TfeGA]AAFL[PyrS2″][3Thi][Bta]N-NH2
modifications: staple 1-4, 4-11; also: -CH=CH- in each staple reduced to -CH2-CH2-
B10: I-1716 (peptide)
peptide: Ac-[αAllylPro]D[tBuAla][B5(4)]D[TfeGA]AAFL[PyrS2″][3Thi][Bta]T-NH2
modifications: staple 1-4, 4-11; also: -CH=CH- in each staple reduced to -CH2-CH2-
B11: I-1717 (peptide)
peptide: Ac-[αAllylPro]D[tBuAla][B5(5)]D[TfeGA]AAFL[PyrS2″][3Thi][Bta][Phe(2-CONH2)]-NH2
modifications: staple 1-4, 4-11; also: staples hydrogenated: -CH=CH- reduced to -CH2-CH2-
B12: I-1718 (peptide)
peptide: Ac-[αAllylPro]D[tBuAla][B5(5)]D[TfeGA]AAFL[PyrS2″][3Thi][Bta][Phe(3-CONH2)]-NH2
modifications: staple 1-4, 4-11; also: staples hydrogenated: -CH=CH- reduced to -CH2-CH2-
B13: I-1721 (peptide)
peptide: Ac-[αAllylPro][AspSH][tBuAla][B5]DDAAFN[PyrS2][Phe(2-Cl)][Bta]Q-NH2
modifications: staple 1-4, 4-11; not fully specified
B14: I-2163 (peptide)
peptide: Ac-[αAllylPro]N[Cha][B5(5)]DQ[Lys(iPr)]AFL[PyrS2″][Phe(3-CONH2)][Bta]Q-NH2
modifications: staple 1-4, 4-11
B15: I-2164 (peptide)
peptide: Ac-[αAllylPro]N[Cha][B5(5)]DQ[Lys(iPr)]AFN[PyrS2″][Phe(3-CONH2)][Bta]Q-NH2
modifications: staple 1-4, 4-11
B16: I-2165 (peptide)
peptide: Ac-[αAllylPro]N[Cha][B5(5)]DQ[Lys(iPr)]AFL[PyrS2″]F[Bta][hSer]-NH2
modifications: staple 1-4, 4-11
B17: I-2166 (peptide)
peptide: Ac-[αAllylPro]N[Cha][B5(5)]DQ[Lys(iPr)]AFL[PyrS2″][Phe(3-CONH2)][Bta][hSer]-NH2
modifications: staple 1-4, 4-11
B18: I-2167 (peptide)
peptide: Ac-[αAllylPro]N[Cha][B5(4)]DQ[Lys(iPr)]AFN[PyrS2″]F[Bta][hSer]-NH2
modifications: staple 1-4, 4-11
B19: I-2168 (peptide)
peptide: Ac-[αAllylPro]N[Cha][B5(4)]DQ[Lys(iPr)]AFN[PyrS2″][Phe(2-CONH2)][Bta][hSer]-NH2
modifications: staple 1-4, 4-11
B20: I-2169 (peptide)
peptide: Ac-[αAllylPro]N[Cha][B5(5)]DQ[Lys(iPr)]AFN[PyrS2″][Phe(4-CONH2)][Bta][hSer]-NH2
modifications: staple 1-4, 4-11
B21: I-2170 (peptide)
peptide: Ac-[αAllylPro]N[Cha][B5(5)]DQ[Lys(iPr)]AFN[PyrS2″]N[Bta][hSer]-NH2
modifications: staple 1-4, 4-11
B22: I-2171 (peptide)
peptide: Ac-[αAllylPro]N[Cha][B5(5)]DQ[Lys(iPr)]AFN[PyrS2″]Q[Bta][hSer]-NH2
modifications: staple 1-4, 4-11
B23: I-2172 (peptide)
peptide: Ac-[αAllylPro]N[Cha][B5(5)]DQ[Lys(iPr)]AFN[PyrS2″]Y[Bta][hSer]-NH2
modifications: staple 1-4, 4-11
B24: I-2173 (peptide)
peptide: Ac-[αAllylPro]N[Cha][B5(5)]DQ[Lys(iPr)]A[Phe(2-CONH2)]N[PyrS2″]F[Bta][hSer]-NH2
modifications: staple 1-4, 4-11
B25: I-2174 (peptide)
peptide: Ac-[αAllylPro]N[Cha][B5(5)]DQ[Lys(iPr)]A[Phe(4-CONH2)]N[PyrS2″]F[Bta][hSer]-NH2
modifications: staple 1-4, 4-11
B26: I-2175 (peptide)
peptide: Ac-[αAllylPro]D[tBuAla][B5(5)]DDAAFN[PyrS2″][3Thi]WQ-NH2
modifications: staple 1-4, 4-11
B27: I-2222 (peptide)
peptide: Ac-[αAllylPro]D[tBuAla][B5(3)]D[Phe(3-COOH)]AAFL[PyrS2″][2F3MeF][Phe(4-Cl)]S-NH2
modifications: staple 1-4, 4-11
B28: I-2223 (peptide)
peptide: Ac-[αAllylPro]D[tBuAla][B5(3)]D[Phe(3-COOH)]QAFL[PyrS2″][2F3MeF][Phe(4-Cl)]A-NH2
modifications: staple 1-4, 4-11
B29: I-2224 (peptide)
peptide: Ac-[αAllylPro]D[tBuAla][B5(3)]D[Phe(3-COOH)]AAFL[PyrS2″][3Thi][Phe(3-Cl)]Q-NH2
modifications: staple 1-4, 4-11
B30: I-2226 (peptide)
peptide: Ac-[αAllylPro]D[tBuAla][B5(3)]D[Phe(3-COOH)]AAFL[PyrS2″][2F3MeF][Phe(3-Cl)]S-NH2
modifications: staple 1-4, 4-11
B31: I-2227 (peptide)
peptide: Ac-[αAllylPro]D[tBuAla][B5(3)]D[Phe(3-COOH)]QAFL[PyrS2″][2F3MeF][Phe(3-Cl)]A-NH2
modifications: staple 1-4, 4-11
B32: I-2228 (peptide)
peptide: Ac-[αMeP]D[tBuAla][Aib]DDAAFQ[Aib][3Thi][Bta]H-NH2
SMILES: CC(=O)N1CCC[C@@]1(C)C(=O)N[C@@H](CC(=O)O)C(=O)N[C@@H](CC(C)(C)C)C(=O)NC(C)(C)C(=O)N[C@@H](CC(=O)O)C(=O)N[C@@H](CC(=O)O)C(=O)N[C@@H](C)C(=O)N[C@@H](C)C(=O)N[C@@H](Cc1ccccc1)C(=O)N[C@@H](CCC(N)=O)C(=O)NC(C)(C)C(=O)N[C@@H](Cc1ccsc1)C(=O)N[C@@H](Cc1csc2ccccc12)C(=O)N[C@@H](Cc1c[nH]cn1)C(N)=O
B33: I-2229 (peptide)
peptide: Ac-[αAllylPro]D[tBuAla][B5(3)]DDAAFQ[PyrS2″][3Thi][Bta]HK-NH2
modifications: staple 1-4, 4-11; also: earlier eluting staple isomer
B34: I-2230 (peptide)
peptide: Ac-[αAllylPro]D[tBuAla][B5(3)]DDAAFQ[PyrS2″][3Thi][Bta]HK-NH2
modifications: staple 1-4, 4-11; also: later eluting staple isomer
B35: I-2231 (peptide)
peptide: Ac-[αMeP]D[tBuAla][Aib]DDAAFQ[Aib][3Thi][Bta]HK-NH2
SMILES: CC(=O)N1CCC[C@@]1(C)C(=O)N[C@@H](CC(=O)O)C(=O)N[C@@H](CC(C)(C)C)C(=O)NC(C)(C)C(=O)N[C@@H](CC(=O)O)C(=O)N[C@@H](CC(=O)O)C(=O)N[C@@H](C)C(=O)N[C@@H](C)C(=O)N[C@@H](Cc1ccccc1)C(=O)N[C@@H](CCC(N)=O)C(=O)NC(C)(C)C(=O)N[C@@H](Cc1ccsc1)C(=O)N[C@@H](Cc1csc2ccccc12)C(=O)N[C@@H](Cc1c[nH]cn1)C(=O)N[C@@H](CCCCN)C(N)=O
B36: I-2510 (peptide)
peptide: Ac-[αAllylPro]D[tBuAla][B6]D[Phe(3-COOH)]QAFL[PyrS1][Phe(2-CF3)][Bta]A-NH2
modifications: staple 1-4, 4-11

The binders below were run against full-length beta-Catenin (Uniprot ID P35222) (Homo sapiens (Human)) (UniProt P35222) (assay: fluorescence polarization competition; displacement of 5FAM-TCF4(10-53) from full-length beta-catenin).
Target sequence in this assay (P35222 whole entry): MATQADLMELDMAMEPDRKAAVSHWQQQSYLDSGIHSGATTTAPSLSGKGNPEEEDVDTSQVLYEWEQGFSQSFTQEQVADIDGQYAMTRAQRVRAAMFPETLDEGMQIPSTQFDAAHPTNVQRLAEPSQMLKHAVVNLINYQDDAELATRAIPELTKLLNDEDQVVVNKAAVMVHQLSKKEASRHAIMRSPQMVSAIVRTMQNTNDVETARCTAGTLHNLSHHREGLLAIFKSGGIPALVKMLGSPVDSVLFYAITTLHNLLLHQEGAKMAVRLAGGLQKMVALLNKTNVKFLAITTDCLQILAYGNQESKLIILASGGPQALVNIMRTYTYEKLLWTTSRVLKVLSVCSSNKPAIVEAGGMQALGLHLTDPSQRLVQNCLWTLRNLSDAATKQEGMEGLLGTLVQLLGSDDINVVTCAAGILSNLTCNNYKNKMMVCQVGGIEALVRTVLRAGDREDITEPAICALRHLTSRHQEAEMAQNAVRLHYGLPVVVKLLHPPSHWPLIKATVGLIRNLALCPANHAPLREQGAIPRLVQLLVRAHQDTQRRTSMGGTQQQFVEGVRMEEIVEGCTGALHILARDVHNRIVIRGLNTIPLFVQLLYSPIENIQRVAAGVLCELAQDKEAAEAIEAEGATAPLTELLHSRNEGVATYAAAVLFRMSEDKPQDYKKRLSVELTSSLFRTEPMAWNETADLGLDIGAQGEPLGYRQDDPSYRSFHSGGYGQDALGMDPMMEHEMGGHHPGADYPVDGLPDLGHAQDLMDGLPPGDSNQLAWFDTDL

Binder | IC50 [nM]
B1 | 29
B2 | 17
B3 | 22

Each binder was assayed against full-length beta-Catenin (Uniprot ID P35222) (Homo sapiens (Human)) (UniProt P35222) (assay: fluorescence polarization competition; peptide titrated against 10 nM full-length beta-catenin + 10 nM 5FAM-TCF4(10-53)).

Binder | IC50 [nM]
B4 | 5000
B5 | 9
B6 | 24
B7 | 19
B8 | 29
B9 | 95
B10 | 224
B11 | 249
B12 | 382
B13 | 139
B14 | 3720
B15 | 1180
B16 | 441
B17 | 1590
B18 | 199
B19 | 212
B20 | 10000

Binder | IC50 [nM]
B21 | 10000
B22 | 10000
B23 | 10000
B24 | 3070
B25 | 10000
B26 | 19
B27 | 84
B28 | 50
B29 | 14
B30 | 97
B31 | 47
B32 | 2140
B33 | 6
B34 | 8
B35 | 5190
B36 | 24
